From patent US20240101707A1, “A METHOD OF PREVENTING, ALLEVIATING OR TREATING A TUMOR” (JIANGSU ALPHAMAB BIOPHARMACEUTICALS CO., LTD., priority 2021, published 2024) come the findings set out here.

This experiment deals with T1, Human PD-L1 (WT) (human, UniProt Q9NZQ7 19-127, limits assumed).
T1 construct: also called human PD-L1 N-terminal IgV domain
The experiment is described as follows: affinity measurement, method not stated.

T1 sequence (Q9NZQ7 19-127 limits assumed): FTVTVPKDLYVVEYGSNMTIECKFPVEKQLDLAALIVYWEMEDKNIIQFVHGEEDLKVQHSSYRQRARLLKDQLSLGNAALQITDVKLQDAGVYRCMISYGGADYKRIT

B1: PD-L1 ISVD-9 (VHH)
VHH: QVQLVESGGGLVQPGGSLRLSCAASGKMSSRRCMAWFRQAPGKERERVAKLLTTSGSTYLADSVKGRFTISRDNSKNTVYLQMNSLRAEDTAVYYCAADSFEDPTCTLVTSSGAFQYWGQGTLVTVSS
notes: also called ISVD specific for PD-L1
As a reminder, the Kd is the concentration at which binding is half-saturated. A lower Kd goes with tighter binding. Turning to B1, the Kd turned out to be 5.92 nM.
